In patent publication US20020076693A1 (published 2002):

Target: T1, recombinant soluble CD4 (UniProt P01730 26-396)
T1 construct: domain: soluble form of recombinant CD4
Experiment: BIAcore, soluble CD4; row shifted one column to the left

B1: recombinant gp120 of HIV-1 SF2 (ligand)
chain: not shown
notes: domain: gp120; also called gp120 HIV-1 SF2; gp120-SF2
Ka: 2.1e+08 M⁻¹ | koff: 0.0056 s⁻¹ | kon: 1.15e+06 M⁻¹ s⁻¹
